According to the supplement of paper PMC9170038:

Test system: MS2 coat protein
Assay: apparent KD of MS2 coat protein; designed switch direction (-1 OFF switch, 1 ON switch): -1; higher = weaker reporter binding
Method in brief: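 The buffer was Tris-HCl pH 7.5 with KCl, MgCl2, BSA, DTT, tRNA and Tween-20. In it, SNAP-549-labelled MS2 coat protein was titrated in doubling steps from 0.7 or 1.5 nM to 3 µM over chip-bound RNA switches transcribed by stalled E. coli RNA polymerase on Illumina chips. Apparent KD is the per-design median over clusters of curve fits to normalised fluorescence.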

[1] = Eterna round: R95, input ligand: FMN 200 uM
[2] = Eterna round: R95, input ligand: microRNA oligo, concentration not stated
[3] = Eterna round: R95, input ligand: none
[4] = input ligand: microRNA oligo, concentration not stated

| Sequence | apparent KD of MS2 coat protein [1] [nM] | apparent KD of MS2 coat protein [2] [nM] | apparent KD of MS2 coat protein [3] [nM] | apparent KD of MS2 coat protein (input ligand: FMN 200 uM) [nM] | apparent KD of MS2 coat protein (input ligand: none) [nM] | apparent KD of MS2 coat protein [4] [nM] |
| --- | --- | --- | --- | --- | --- | --- |
| AAAAAGAGAGGAUAUACAACAAAACAAAACAAAACAAACACACAUGAGGAUCACCCAUGUAGAAGGCUCGAAAA [Exclusion 2 #2] (puzzle: Exclusion 2) | 25.1 | 16.5 | 19.3 | – | – | – |
| CUCUGCACGCUGCGGUCCUACAUGAGGAUCACCCAUGUGGUCUGGUGGCGUGGGUCGCCGGACUUGGCUCGUCUUGA [salish99_S_TOV1_R5_046] (Eterna round: R97, puzzle: Sensor, turn-off variant 1) | – | – | – | 19 | 18.7 | – |
| AGGCUGUCAGGAUAUCUGCGCCGUGGUGCGCGGCGUUAUAAAGAGAAGGGACAUGAGGAUCACCCAUGUCCUCA [EX4 B.25] (Eterna round: R97, puzzle: Exclusion 4) | – | – | – | 79.7 | 19.4 | – |
| AGGUCCUUCUGGACACAUGAGGAUCACCCAUGUGAGGUCAGCGAGGAUAUCGGUCAAUAAUGUGACGAGAAGGCGCGGACCGAU [Ex NG3 #58] (Eterna round: R96, puzzle: Exclusion NG 3) | – | – | – | 31.6 | 19.1 | 14.8 |
| GGAAAGGUAGGAUAUACGAAGAAAAAGGGUAGAAUAAUAACACAUGAGGAUCACCCAUGUAGAAGGACCAAAGC [Mat - Exclusion 2 - Mod of my Tesla design - D13] (puzzle: Exclusion 2) | 49.5 | 21 | 25.4 | – | – | – |
| CCUAAACAUGAGGAUCACCCAUGUGAGGAUAUGCACACCACAACAUGCGGUUGAGGGUGCAGAAGGCAUAUGAG [Eternabot (L1) Solution 60] (Eterna round: R97, puzzle: Exclusion 1) | – | – | – | 99.2 | 34.2 | – |
| CUUCGUUGUAAGGAUAUCCAGACUCUUCCUGUCGGAGAAGGUACAACAUGAGGAUCACCCAUGUUGCUACAUGG [Zaaqu] (puzzle: Exclusion 6) | – | 21.6 | – | – | – | – |
| UUUUUAUAUGAAGGAUAUACUUAACAUGAGGAUCACCCAUGUGGUGUUGUGAGUGAGUGAGUUUAGUAGAAGGUCAAUGAUUUC [JMF's solution 64] (Eterna round: R96, puzzle: Exclusion NG 2) | – | – | – | 764 | 439 | 382 |
| UGAACAUGUGUCAGGAUAUCUGAUGUAAGUUAAUCGGAGAAGGGACAUGAGGAUCACCCAUGUCGUCGAAAGAU [Eternabot (L2) Solution 40] (Eterna round: R97, puzzle: Brourd's mod of Exclusion 4) | – | – | – | 19.3 | 15.5 | – |
| UUUAAUUGUGACAUGGGUGACAUGAGGAUCACCCAUGUCACAAGCUUUUUGUUCGUCUUAUAAUUAACCCAUGUCAC [Stov1/13-B1] (Eterna round: R97, puzzle: Sensor, turn-off variant 1) | – | – | – | 37.8 | 123 | – |
| ACAAGCAUUUAUCUUUUCAAAUAUUAUCGUCUUAUAAUUACAUGAGGAUCACCCAUGUAUAGAGGGUGAGAGAUACU [JR_Sensorv2_tov2_Sub552] (Eterna round: R96, puzzle: Sensor v2, turn-off variant 2) | – | – | – | 61.1 | 58.1 | 121 |
| CUGAAAUUCGUAAGGAUAUGUUCCAUCAAAUAGGAGCAGAAGGUACAUGAGGAUCACCCAUGUCAGUAGAUCCA [Eternabot (L1) Solution 47] (Eterna round: R97, puzzle: Brourd's mod of Exclusion 4) | – | – | – | 130 | 40.2 | – |
| AAACGCUGAGGAUAUAUAUAACAACAAAGCCUCACGUGCCAACAUGAGGAUCACCCAUGUAGAAGGCAGCCCAA [Mod R3 Insanara 12 - Jieux - Exclusion 2] (Eterna round: R97, puzzle: Exclusion 2) | – | – | – | 15.8 | 14.1 | – |
| UCAAGUAUGUAGGAUAUGAUGUGAUUGUACAUAUCAGAAGGACGUACAUGAGGAUCACCCAUGUAACUUGCAUG [Exclusion 6 - B - 12:b] (puzzle: Exclusion 6) | 43.1 | 144 | 144 | – | – | – |
| AGUGCUGGCGCGUCGGUGUUGGUACAAUAAGCUUGUGAAACAUGAGGAUCACCCAUGUCCUCAUAAGCUCGUCUUAU [salish99_TOv2_r2_084] (puzzle: Sensor v3, turn-off variant 2) | 17.6 | 553 | 16.9 | – | – | – |
| AAUUAGCAAGCGAGAUCUCACAUGAGGAUCACCCAUGUGCUCGUCUUAUAAGGUACUGUGACGAUAGUCACGGUACC [Mat - Sensor, turn-off var - Eli Mod - D39] (Eterna round: R97, puzzle: Sensor, turn-off variant 1) | – | – | – | 13.2 | 14.8 | – |
| UAUUAAUGCAAGGAUAUGCUUUUAAUUUUUUUUGCAGAAGGUGCAACAUGAGGAUCACCCAUGUUUCAGGGUAU [JR_E6_Sub031] (puzzle: Exclusion 6) | – | 35.1 | – | – | – | – |
| UUUUAGAGAGGAUAUAUGAUGUGAAACAUGAGGAUCACCCAUGUAAUAUUAUGGAUGUAAAUAGAAGGCUCAUUUA [JL-ex5-3.05] (puzzle: Exclusion 5) | 38.8 | 63.3 | 69.1 | – | – | – |
| CUUUAACAAGCGAGAUCCAACAUGAGGAUCACCCAUGUGCAUCCACGAUUAGUGGGUGCGAAAGCUCGUCUUAUAUG [v1] (Eterna round: R97, puzzle: Sensor, turn-off variant 1) | – | – | – | 20.9 | 21.6 | – |
| ACCGAUGUGCAAGGAUAUGACAUGAGGAUCACCCAUGUCAAAACAAGAAGAACGGGUGUGCCUCCUUAGAAGGUGCACAAACGA [Eternabot solution 2] (Eterna round: R96, puzzle: Exclusion NG 2) | – | – | – | 26.1 | 24 | 17.1 |
| UCUCGCGGGCAAGGAUAUCCUACAUUGUUCUGGCCCGGGCAUGUUACAUGAGGAUCACCCAUGUGGGAGAAGGUGCGCCAGGGC [Design 35] (Eterna round: R96, puzzle: Exclusion NG 2) | – | – | – | 29.9 | 30.3 | 18.9 |
| GGGCCGCAAGUAAGGAUAUCCCUUAAAUUGUGAGCGGAGAAGGUACUUGAGGAUCACCCAAGUAUAGAAGAAAA [Arinbear] (Eterna round: R97, puzzle: Brourd's mod of Exclusion 4) | – | – | – | 54.2 | 15.2 | – |
| AAUAACGAGCCGGUCCUCCACAUGAGGAUCACCCAUGUGUUCGUCUUGUAAAGUACUAUCACGAAAGUGAUAGUACA [mod jandersonlee2] (Eterna round: R97, puzzle: Sensor, turn-off variant 1) | – | – | – | 746 | 858 | – |
| AGAAGACAUGAGGAUCACCCAUGUAAGGAUAUCGAAGGUAAGAGAGGAAAGAAGGGAACGAGAAGGUACAGGUG [JR_Exclu1_Sub096] (puzzle: Exclusion 1) | 91.6 | 107 | 156 | – | – | – |
